Among the data in the RNAGym collection of RNA variant scans (doi:10.1093/molbev/msab373) are reverse-splicing fitness values, retold here.

The labels stand for the following.
B1: Azoarcus group I ribozyme (parent)
chain: GUGCCUUGCGCCGGGAAACCACGCAAGGGAUGGUGUCAAAUUCGGCGAAACCUAAGCGCCCGCCCGGGCGUAUGGCAACGCCGAGCCAAGCUUCGGCGCCUGCGCCGAUGAAGGUGUAGAGACUAGACGGCACCCACCUAAGGCAAACGCUAUGGUGAAGGCAUAGUCCAGGGAGUGGCGAAAGUCACACAAACCGG

Variants of B1 are the subject of this data set. The data set can be described thus: reverse-splicing fitness (ratio to wild type); higher = more active; in vitro selection; Mg2+ level not given. The method in brief: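 An in vitro group I ribozyme library with randomized positions was T7-transcribed and gel-purified. In triplicate, 10 pmol RNA in EPPS pH 7.5 was reacted with 50 pmoles of a 30-nt RNA substrate for 1 h at 37 °C across several added MgCl2 levels (1–48 mM), then stopped with EDTA. Products were reverse transcribed from a substrate-complementary primer, PCR-amplified and sequenced (HiSeq 4000). Fitness is a variant's read proportion after selection over that before, normalised to wild type.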
As to C82G A145U C150G C169G, the reverse-splicing fitness is 0.00774.
Regarding C82G A145U C150G C169U, the reverse-splicing fitness was 0.0092.
The value for C82U A111C A120C A145C C169G U176A was 0.0195.
The value for C82U A111C A120C A145C C169G U176G was 0.00555; that for C82U A111C A120C A145C C169G U176C was 0.015; that for C82G A145C C150A U176C was 0.0216.
As for C82G A145C C150A U176G, the figure is 0.0117; as for C82G A145C C150A U176A, 0.0237.
Turning to C82U A111C A120C A145C C150U U176A, the reverse-splicing fitness came to 0.00836.
The value for C82U A111C A120C A145C C150U U176C was 0.0102; that for C82U A111C A120C A145C C150U U176G was 0.0052.
The value for C82G A145U U176C was 0.405; that for C82G A145U U176A was 0.395; that for C82G A145U U176G was 0.175.
The value for C82G A145G C150G C169A U176A was 0.0146; that for C82G A145G C150G C169A U176G was 0.00858; that for C82G A145G C150G C169A U176C was 0.0144.
With C82G A145G C150A C169A U176A, the reverse-splicing fitness came out at 0.0204.
As for C82G A145G C150A C169A U176C, the figure is 0.0238.
On to C82G A145G C150A C169A U176G, for which the reverse-splicing fitness came to 0.00731.
As for C82G A145C C150G C169G U176A, the figure is 0.00973; as for C82G A145C C150G C169G U176C, 0.00656; as for C82G A145C C150G C169G U176G, 0.0054.
As for C82G C169A U176G, the figure is 0.00463; as for C82G C169A U176C, 0.0165; as for C82G C169A U176A, 0.0146.
As for C82G C150A C169G U176G, the figure is 0.00539.
C82G C150A C169G U176C: the reverse-splicing fitness was 0.0214.
As for C82G C150A C169G U176A, the figure is 0.0179; as for C82U A111C A120C A145C C169A, 0.00667; as for C82U A111C A120C A145C C169G, 0.00865.
As for C82U A111C A120C A145C C169U, the reverse-splicing fitness came to 0.0105.
Consider C82G A145U C169U U176G, for which the reverse-splicing fitness stood at 0.00368.
Consider C82G A145U C169U U176C, for which the reverse-splicing fitness came to 0.0136.
As for C82G A145U C169U U176A, the figure is 0.0116; as for C82G A145G C150U C169A U176C, 0.0162.
For the variant C82G A145G C150U C169A U176G, the reverse-splicing fitness turned out to be 0.00619.
The value for C82G A145G C150U C169A U176A was 0.0169.
As for C82G A145C C150G C169U U176C, the figure is 0.00852; as for C82G A145C C150G C169U U176A, 0.0101.
As for C82G A145C C150G C169U U176G, the figure is 0.00486; as for C82U A111C A120C A145C C169U U176A, 0.0162.
Regarding C82U A111C A120C A145C C169U U176G, the reverse-splicing fitness came to 0.00426.
The value for C82U A111C A120C A145C C169U U176C was 0.0147; that for C82G C150A U176C was 0.0447.
On to C82G C150A U176G, for which the reverse-splicing fitness was determined as 0.0188.
On to C82G C150A U176A, for which the reverse-splicing fitness was 0.0422.
As for C82G C150G C169U U176A, the figure is 0.00858; as for C82G C150G C169U U176C, 0.0132; as for C82G C150G C169U U176G, 0.00593.
Regarding C82U, the reverse-splicing fitness is 0.643.
The value for C82G A145G C150U C169U U176A was 0.0145; that for C82G A145G C150U C169U U176C was 0.015.
The value for C82G A145G C150U C169U U176G was 0.0045; that for C82G C169G U176A was 0.0155.
Turning to C82G C169G U176G, the reverse-splicing fitness amounted to 0.00418.
As for C82G C169G U176C, the figure is 0.0235; as for C82U A111C A120C A145C C150A C169G, 0.00647; as for C82U A111C A120C A145C C150A C169U, 0.00906.
As for C82U A111C A120C A145C C150A C169A, the figure is 0.00737.
The value for C82G C150G U176A was 0.0255.
With C82G C150G U176C, the reverse-splicing fitness was 0.0287.
The value for C82G C150G U176G was 0.00797; that for C82G A145U C169U was 0.0147.
In the case of C82G A145U C169G, the reverse-splicing fitness stood at 0.0104.
The value for C82G A145U C169A was 0.00844.
Turning to C82G A145G C150A C169G U176A, the reverse-splicing fitness was 0.017.
As for C82G A145G C150A C169G U176C, the figure is 0.0286; as for C82G A145G C150A C169G U176G, 0.00515.
The value for C82G A145U C150A C169G was 0.00669; that for C82G A145U C150A C169U was 0.00756.
Regarding C82G A145U C150A C169A, the reverse-splicing fitness came to 0.00972.
The value for C82G A145C C150G U176A was 0.0337; that for C82G A145C C150G U176C was 0.0389.
Take C82G A145C C150G U176G: the reverse-splicing fitness stood at 0.0106.
With C82G C150U C169A U176C, the reverse-splicing fitness is 0.0132.
The value for C82G C150U C169A U176G was 0.00526; that for C82G C150U C169A U176A was 0.0176; that for C82G A145U C150U C169U U176A was 0.0118.
C82G A145U C150U C169U U176G: the reverse-splicing fitness was 0.00492.
As for C82G A145U C150U C169U U176C, the figure is 0.0121; as for C82G A145U C150G U176C, 0.0376.
C82G A145U C150G U176A: the reverse-splicing fitness is 0.0361.
The value for C82G A145U C150G U176G was 0.0103.
